{"source": "patent US9040054B2", "binders": {"B1": {"name": "BM4 (protein)", "chain": "GVFNYETETTSVIPAARLFKAFILDGDNLFPKVAPQAISSVENIEGNGGPGTIKKISFPEGFPFKYVKDRVDEVDHTNFKYNYSVIEGGPIGDTLEKISNEIKIVATPSGSTIKSISNKYHTKGDHEVKAEQVKASKEMGETLLRAVESYLLAHSDAYN"}}, "target": "serum IgE of birch pollen allergic (Bet v 1 allergic) patients", "assay": "ELISA inhibition: BM4 as inhibitor in serial dilutions, Bet v 1a immobilized at 200 ng/well, 5 sera"}
{"binder": "B1", "values": [{"measurement": "fold reduced patients' IgE binding capacity compared to Bet v 1a", "result": "100 to 1000", "unit": "fold"}]}
